The experiment addresses p53, recombinant (UniProt P04637 1-393). Description: BLI.

p53, recombinant, sequence (P04637 whole entry): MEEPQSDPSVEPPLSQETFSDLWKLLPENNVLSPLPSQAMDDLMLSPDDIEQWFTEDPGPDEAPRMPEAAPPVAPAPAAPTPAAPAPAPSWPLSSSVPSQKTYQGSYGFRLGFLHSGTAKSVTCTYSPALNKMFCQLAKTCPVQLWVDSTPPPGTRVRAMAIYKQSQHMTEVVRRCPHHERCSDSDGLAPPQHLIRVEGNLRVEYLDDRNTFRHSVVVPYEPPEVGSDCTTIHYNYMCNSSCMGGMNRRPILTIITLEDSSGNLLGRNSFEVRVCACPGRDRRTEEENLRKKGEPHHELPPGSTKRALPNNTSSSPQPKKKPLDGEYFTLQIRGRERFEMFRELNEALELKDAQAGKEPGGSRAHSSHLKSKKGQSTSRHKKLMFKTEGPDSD

B1: recombinant HMGB1 B box (domain or fragment)
chain: KFKDPNAPKRPPSAFFLFCSEYRPKIKGEHPGLSIGDVAKKLGEMWNNTAADDKQPYEKKAAKLKEKYEKDIAAY
modifications: Limits not given; 88-162 is the usual B box construct of the source laboratory (Tracey).
B1: the Kd amounted to 14.5 nM.

The term Kd denotes the free concentration of one partner at which half of the binding sites on the other are occupied at equilibrium, for simple one-to-one binding.

Source of the values: publication PMC3417120 (Cancer research, 2012).
